Experimental data reported in patent US20240174716A1 (VACINO BIOTECH, published 2024).

Biological target: T1, TfR protein (Acro Biosystems. Cat. No. CD1-H5243) (UniProt P02786 89-760)
T1 construct: Bought recombinant protein; also called TfR1; transferrin receptor
Test: FOPPR (fiber optic particle plasmon resonance); peptide coupled to chip, TfR protein loaded at 0.5-1000 ng/mL
Experimental: In this Example, the binding affinity of the transporter peptides disclosed herein to TfR was analyzed by fiber optic particle plasmon resonance (FOPPR). In this Example, different amino acid sites of the transporter peptide were further substituted with different amino acids of the same property to anaylze binding affinity of these variant peptides to the transferrin receptor.
To determine the affinity of the targeting peptide to TfR1, a fiber optic particle plasmon resonance (FOPPR) affinity study was performed according to the manufacturer's instruction. Briefly, 80 μL of tested peptide (10 μg/ml) dissolved in PBS buffer (pH 7.4) was pipetted into the EDC/NHS preactivated surface of standard chip NanoAu-MM (Taipei, Taiwan) for peptide conjugating to the carboxyl group of the surface sensor chip. TfR protein (Acro Biosystems. Cat. No. CD1-H5243, Newark, DE, USA) was loading to the chip with at the concentrations of 0.5 ng/mL, 1 ng/mL, 10 ng/mL, 100 ng/mL, 500 ng/mL, and 1000 ng/mL, respectively. Based on the light intensity change, the molecules interaction parameters of KD were calculated by the FOPPR system D200 (Id M3) (Taipei, Taiwan).

T1 sequence (P02786 89-760 limits assumed): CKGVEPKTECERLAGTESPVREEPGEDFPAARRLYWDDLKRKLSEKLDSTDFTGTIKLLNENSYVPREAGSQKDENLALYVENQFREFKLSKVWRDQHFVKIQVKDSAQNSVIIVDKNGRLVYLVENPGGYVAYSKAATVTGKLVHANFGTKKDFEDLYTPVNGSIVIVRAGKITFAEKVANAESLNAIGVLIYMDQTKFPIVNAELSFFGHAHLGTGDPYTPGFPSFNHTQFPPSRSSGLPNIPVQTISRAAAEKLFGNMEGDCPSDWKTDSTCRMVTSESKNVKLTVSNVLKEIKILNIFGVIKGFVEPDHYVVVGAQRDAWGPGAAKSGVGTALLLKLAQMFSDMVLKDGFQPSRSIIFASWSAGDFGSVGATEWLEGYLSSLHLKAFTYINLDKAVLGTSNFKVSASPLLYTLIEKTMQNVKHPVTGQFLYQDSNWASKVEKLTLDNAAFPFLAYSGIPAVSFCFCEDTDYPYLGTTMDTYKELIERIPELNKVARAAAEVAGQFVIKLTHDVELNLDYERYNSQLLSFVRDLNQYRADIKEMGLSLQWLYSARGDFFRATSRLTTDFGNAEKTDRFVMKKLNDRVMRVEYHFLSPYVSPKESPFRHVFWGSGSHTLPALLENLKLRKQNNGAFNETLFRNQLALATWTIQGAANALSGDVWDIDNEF

DITVLCKEYN (10-mer; also called transporter peptide) [PT-066]
Kd: 86.1 nM

DISVLMKEYD (10-mer; also called transporter peptide) [PT-001]
Kd: 71 nM

DISVVMKEYD (10-mer; also called transporter peptide) [PT-024]
Kd: 8.22 nM

DISVLMKEFD (10-mer; also called transporter peptide) [PT-055]
Kd: 6.08 nM

DISVLKKEYD (10-mer; also called transporter peptide) [PT-028]
Kd: 5.14 nM

DISVLMKHYD (10-mer; also called transporter peptide) [PT-065]
Kd: 0.57 nM

DISVLCKEYD (10-mer; also called transporter peptide) [PT-027]
Kd: 0.27 nM

DISVLEKEYD (10-mer; also called transporter peptide) [PT-029]
Kd: 3.62 nM

DIDVLMKEYD (10-mer; also called transporter peptide) [PT-004]
Kd: 18.5 nM

DIPVLMKEYD (10-mer; also called transporter peptide) [PT-014]
Kd: 52.3 nM

DISVLDKEYD (10-mer; also called transporter peptide) [PT-025]
Kd: 0.43 nM

DISVLMKEYN (10-mer; also called transporter peptide) [PT-031]
Kd: 4.45 nM

DISVLLKEYD (10-mer; also called transporter peptide) [PT-064]
Kd: 10.5 nM

NISVLMKEYD (10-mer; also called transporter peptide) [PT-062]
Kd: 1.3 nM

DILVLMKEYD (10-mer; also called transporter peptide) [PT-011]
Kd: 3.23 nM

DISLLMKEYD (10-mer; also called transporter peptide) [PT-022]
Kd: 36.6 nM

DISVLMKEYE (10-mer; also called transporter peptide) [PT-033]
Kd: 261 nM

DIHVLDKEYD (10-mer; also called transporter peptide) [PT-067]
Kd: 0.45 nM

DITVLMKEYD (10-mer; also called transporter peptide) [PT-017]
Kd: 4.77 nM

DISVIMKEYD (10-mer; also called transporter peptide) [PT-023]
Kd: 22.8 nM

DISVLMKDYD (10-mer; also called transporter peptide) [PT-054]
Kd: 59.3 nM

DISVLNKEYD (10-mer; also called transporter peptide) [PT-026]
Kd: 26 nM

DISVLMKESD (10-mer; also called transporter peptide) [PT-056]
Kd: 4.1 nM

DISELMKEYD (10-mer; also called transporter peptide) [PT-063]
Kd: 16.6 nM

DIHVLMKEYD (10-mer; also called transporter peptide) [PT-008]
Kd: 8.07 nM

DISVLSKEYD (10-mer; also called transporter peptide) [PT-051]
Kd: 70 nM

DISVLMKEYQ (10-mer; also called transporter peptide) [PT-034]
Kd: 39.3 nM

DISVLMKETD (10-mer; also called transporter peptide) [PT-057]
Kd: 1.92 nM

DISVLQKEYD (10-mer; also called transporter peptide) [PT-030]
Kd: 10.3 nM
